Reference: patent publication US20260021190A1

Tests used:
[1] = biological target: human insulin receptor type B (IR(B)) (human) (UniProt P06213); assay: cell-based or functional assay
[2] = biological target: T1, Human macrophage mannose receptor 1 (MRC1) (human) (UniProt P22897); assay: competition with Eu-mannosylated-BSA on captured human MRC1, DELFIA
T1 sequence (looked up): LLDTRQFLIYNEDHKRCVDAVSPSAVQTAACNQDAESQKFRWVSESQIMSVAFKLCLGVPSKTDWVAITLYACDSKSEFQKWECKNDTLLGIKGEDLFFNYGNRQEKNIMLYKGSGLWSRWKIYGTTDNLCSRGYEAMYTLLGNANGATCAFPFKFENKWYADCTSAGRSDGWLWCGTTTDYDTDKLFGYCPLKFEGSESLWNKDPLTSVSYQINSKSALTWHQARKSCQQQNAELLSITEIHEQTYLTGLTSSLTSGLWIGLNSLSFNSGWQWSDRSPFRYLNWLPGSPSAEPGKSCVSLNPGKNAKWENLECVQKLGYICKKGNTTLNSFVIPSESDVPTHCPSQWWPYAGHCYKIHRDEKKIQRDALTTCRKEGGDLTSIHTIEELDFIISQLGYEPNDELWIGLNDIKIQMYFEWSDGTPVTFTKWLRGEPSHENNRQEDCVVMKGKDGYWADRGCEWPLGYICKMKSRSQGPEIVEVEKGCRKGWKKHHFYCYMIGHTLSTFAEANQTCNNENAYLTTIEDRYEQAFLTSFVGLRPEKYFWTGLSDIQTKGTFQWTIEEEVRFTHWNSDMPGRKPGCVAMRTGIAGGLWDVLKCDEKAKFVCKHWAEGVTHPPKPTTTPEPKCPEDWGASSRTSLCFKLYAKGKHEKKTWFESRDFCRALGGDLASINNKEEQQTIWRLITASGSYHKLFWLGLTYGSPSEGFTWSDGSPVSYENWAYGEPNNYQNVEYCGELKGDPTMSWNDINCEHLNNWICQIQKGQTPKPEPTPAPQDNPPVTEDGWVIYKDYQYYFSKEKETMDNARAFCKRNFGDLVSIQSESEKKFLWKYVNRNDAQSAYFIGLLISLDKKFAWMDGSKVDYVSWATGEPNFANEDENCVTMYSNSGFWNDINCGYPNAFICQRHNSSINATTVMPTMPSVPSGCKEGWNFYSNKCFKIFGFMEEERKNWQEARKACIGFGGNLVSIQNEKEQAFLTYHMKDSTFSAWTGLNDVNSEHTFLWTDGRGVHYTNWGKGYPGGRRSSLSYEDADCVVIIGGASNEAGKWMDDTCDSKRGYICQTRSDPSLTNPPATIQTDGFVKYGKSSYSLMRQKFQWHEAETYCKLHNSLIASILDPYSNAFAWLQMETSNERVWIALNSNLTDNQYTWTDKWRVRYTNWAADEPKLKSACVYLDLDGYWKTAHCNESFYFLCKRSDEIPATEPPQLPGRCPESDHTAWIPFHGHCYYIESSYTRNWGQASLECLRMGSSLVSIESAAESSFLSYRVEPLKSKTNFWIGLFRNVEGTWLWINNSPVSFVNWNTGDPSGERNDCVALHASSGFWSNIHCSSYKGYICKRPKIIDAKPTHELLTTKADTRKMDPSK

UniProt P06213, sequence (P06213 28-1382): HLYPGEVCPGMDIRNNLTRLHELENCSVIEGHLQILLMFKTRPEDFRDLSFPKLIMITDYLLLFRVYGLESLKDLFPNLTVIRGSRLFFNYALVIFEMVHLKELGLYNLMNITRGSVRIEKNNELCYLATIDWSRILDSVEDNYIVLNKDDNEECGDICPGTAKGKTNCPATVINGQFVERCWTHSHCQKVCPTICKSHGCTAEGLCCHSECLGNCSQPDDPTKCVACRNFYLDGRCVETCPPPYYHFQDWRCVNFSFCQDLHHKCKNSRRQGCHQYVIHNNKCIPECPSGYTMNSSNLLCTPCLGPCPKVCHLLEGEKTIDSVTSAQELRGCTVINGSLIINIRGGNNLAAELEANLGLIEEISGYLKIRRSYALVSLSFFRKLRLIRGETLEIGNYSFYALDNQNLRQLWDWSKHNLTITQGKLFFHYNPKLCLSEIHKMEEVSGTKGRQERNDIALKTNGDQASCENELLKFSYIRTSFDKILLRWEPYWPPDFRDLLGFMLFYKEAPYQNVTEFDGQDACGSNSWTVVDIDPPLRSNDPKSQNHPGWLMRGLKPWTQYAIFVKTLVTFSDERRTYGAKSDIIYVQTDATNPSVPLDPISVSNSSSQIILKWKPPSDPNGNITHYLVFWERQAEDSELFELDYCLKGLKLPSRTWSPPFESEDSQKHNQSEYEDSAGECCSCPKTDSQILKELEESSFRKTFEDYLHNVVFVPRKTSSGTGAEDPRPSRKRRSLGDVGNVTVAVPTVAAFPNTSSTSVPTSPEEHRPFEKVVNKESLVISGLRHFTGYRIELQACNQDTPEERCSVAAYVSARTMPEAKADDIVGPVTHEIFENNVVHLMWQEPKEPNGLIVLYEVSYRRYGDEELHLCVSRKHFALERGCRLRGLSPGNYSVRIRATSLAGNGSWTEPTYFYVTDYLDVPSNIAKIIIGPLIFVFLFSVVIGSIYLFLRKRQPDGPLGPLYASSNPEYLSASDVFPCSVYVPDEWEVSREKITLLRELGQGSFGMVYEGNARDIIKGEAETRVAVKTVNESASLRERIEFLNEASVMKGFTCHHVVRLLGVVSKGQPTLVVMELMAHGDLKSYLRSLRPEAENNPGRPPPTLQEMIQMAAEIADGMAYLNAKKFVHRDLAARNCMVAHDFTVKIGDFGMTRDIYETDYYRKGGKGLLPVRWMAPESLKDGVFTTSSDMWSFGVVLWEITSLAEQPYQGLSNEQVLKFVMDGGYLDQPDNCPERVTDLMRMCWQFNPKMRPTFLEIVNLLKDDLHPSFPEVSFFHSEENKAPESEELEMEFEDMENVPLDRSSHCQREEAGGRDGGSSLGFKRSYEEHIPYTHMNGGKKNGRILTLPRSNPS

Q: IOC-34 (Lispro) (ligand) was tested. Which Human pIR IC50 (nM) [1] did it give?
A: Its Human pIR IC50 (nM) is 6.36 nM.

Q: What about the IC50 [2] of the same substance?
A: The IC50 was 82.7 nM.
